From patent US20220305082A1 (CENTRICSBIO, published 2022)

T1: mouse CD300c antigen (mouse)
T1 sequence (A2A7V7 whole entry, looked up): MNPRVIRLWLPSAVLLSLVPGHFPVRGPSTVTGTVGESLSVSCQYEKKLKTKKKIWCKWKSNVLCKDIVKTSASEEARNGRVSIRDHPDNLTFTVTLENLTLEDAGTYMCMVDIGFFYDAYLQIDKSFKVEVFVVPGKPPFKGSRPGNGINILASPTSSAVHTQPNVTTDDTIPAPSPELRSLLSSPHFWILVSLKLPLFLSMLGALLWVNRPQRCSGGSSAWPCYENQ

T2: CD300a antigen (12449-H08H, Sino Biological) (UniProt Q9UGN4 18-180)
T2 construct: Bought recombinant antigen
T2 sequence (looked up): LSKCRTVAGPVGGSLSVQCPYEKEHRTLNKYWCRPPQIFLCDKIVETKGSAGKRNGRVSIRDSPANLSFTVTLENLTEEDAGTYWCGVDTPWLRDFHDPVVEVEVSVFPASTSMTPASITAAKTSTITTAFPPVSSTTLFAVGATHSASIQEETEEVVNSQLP

B1: anti-CD300c monoclonal antibody CL7 (antibody, V domains shown)
VH: EVQLLESGGGLVQPGGSLRLSCAASGFTFSRYAMSWVRQAPGKGLEWVSAISGSGGSTYYADSVKGRFTISRDNSKNTLYLQMNSLRAEDTAVYYCARSSQGIFDIWGQGTLVTVSS
VL: QSVLTQPPSASGTPGQRVTISCSGNNIGTRRVHWYQQLPDTAPKLLIYSKNNRPSGVPDRFSGSKSGTSASLAISGLRSEDEADYYCAAWDDSLSGPVFGGGTKLTVL
notes: Full antibody from separate heavy and light chain vectors in 293T cells
B2: anti-CD300c monoclonal antibody SL18 (antibody, V domains shown)
VH: RVQLLESGGGLVQPGGSLRLSCAASGFTFSDYHMHWVRQAPGKGLEWVSTISSSGGYTYYAESVKSRFTISRDNSKNTLYLQMNSLRAEDTAVYYCARSIRLPLDYWGQGTLVTVSS
VL: QSVLTQPPSASGTPGQRVTISCSGNNIGSKGVHWYQQLPGTAPKLLIYEDSKRPSGVRDRFSGSKSGTSASLAISGLRSEDEADYYCQSYDSTKGVVFGGGTKLTVL
B3: anti-CD300c monoclonal antibody CL10 (antibody, V domains shown)
VH: EVQLLESGGGLVQPGGSLRLSCAASGFTFSSYGMHWVRQAPGKGLEWVSAISGSGGSTYYADSVKGRFTISRDNSKNTLYLQMNSLRAEDTAVYYCASGYGLMDVWGQGTLVTVSS
VL: QSVLTQPPSASGTPGQRVTISCTRSSGIIASNYVQWYQQLPGTAPKLLIYRNNQRPSGVPDRFSGSKSGTSASLAISGLRSEDEADYYCSSYAGNNNLVFGGGTKLTVL

Tests used:
mouse CD300c antigen = target: T1, mouse CD300c antigen; experiment: cell-based or functional assay
[1] = target: T2, CD300a antigen (12449-H08H, Sino …); experiment: binding ELISA with CD300a antigen
Experimental: To identify the antigen-binding ability of the anti-CD300c monoclonal antibody produced in Example 1, binding ELISA was performed. Specifically, each of the CD300c antigen (11832-H08H, Sino Biological) or CD300a antigen (12449-H08H, Sino Biological) in a coating buffer (0.1 M sodium carbonate, pH 9.0) was dispensed onto an ELISA plate at a concentration of 8 μg/mL per well, and then reaction was allowed to proceed at room temperature for 3 hours so that the antigen was bound to the plate. Washing was performed 3 times using phosphate buffered saline-Tween 20 (PBST) to remove unbound antigen, and then 300 μL of PBST supplemented with 5% bovine serum albumin (BSA) was added to each well. Reaction was allowed to proceed at room temperature for 1 hour, and washing was performed again using PBST. Then, the anti-CD300c monoclonal antibody was diluted in quadruplicate and added thereto. Reaction was allowed to proceed for 1 hour at room temperature for antigen binding. After 1 hour, washing was performed 3 times using PBST to remove unbound anti-CD300c monoclonal antibody, and then 4 μg/mL of an antibody for detection (HRP conjugated anti-Fc IgG) was added. […] Then, 2 N sulfuric acid solution was added to terminate the development, and the absorbance was measured at 450 nm to identify the antibodies that specifically bind to the CD300c antigen. […]

Binder | cancer cell proliferation inhibitory effects (CT26 mouse colorectal cancer cell line, CCK-8), higher than the control group (mouse CD300c antigen) [%] | binding result [1]
B1 | 66 | no binding (tested: 0.039, 0.63, and 10 µg/mL)
B2 | 38 | 
B3 | 15 | 
